Reference: patent publication US20250368745A1 (published 2025)

T1: human IL-18BP (human, UniProt O95998 31-194)
T1 construct: UniProt printed as 095998; also called hIL-18BP
T1 sequence: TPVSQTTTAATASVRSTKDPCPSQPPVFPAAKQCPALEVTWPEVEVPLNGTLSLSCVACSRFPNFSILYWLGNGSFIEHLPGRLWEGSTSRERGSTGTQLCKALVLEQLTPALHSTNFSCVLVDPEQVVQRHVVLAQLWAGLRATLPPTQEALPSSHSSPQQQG


biological target: T1, human IL-18BP; assay: BLI, apparent KD

Binder | Kd
SA302a HC-D33V (antibody, V domains shown, IgG1 kappa) VH: QVQLQESGPGLVKPSQTLSLTCTVSGYSITSVYNAHWIRQPPGKGLEWIGYIHYSGSTNYNPSLKSRVTISRDTSKNQFSLKLSSVTAADTAVYYCARNYGSIYVNYFDYWGQGTLVTVSS VL: EIVLTQSPATLSLSPGERATLSCSASSSVSYMYWYQQKPGQAPRPLIYRTSNLASGIPARFSGSGSGTDFTLTISSLEPEDFAVYYCQQYHSYPTFGGGTKVEIK | 5.42 nM
SA302a HC-T30E (antibody, V domains shown) VH: QVQLQESGPGLVKPSQTLSLTCTVSGYSIESDYNAHWIRQPPGKGLEWIGYIHYSGSTNYNPSLKSRVTISRDTSKNQFSLKLSSVTAADTAVYYCARNYGSIYVNYFDYWGQGTLVTVSS VL: EIVLTQSPATLSLSPGERATLSCSASSSVSYMYWYQQKPGQAPRPLIYRTSNLASGIPARFSGSGSGTDFTLTISSLEPEDFAVYYCQQYHSYPTFGGGTKVEIK | 2.08 nM
SA302a HC-T30F (antibody, V domains shown) VH: QVQLQESGPGLVKPSQTLSLTCTVSGYSIFSDYNAHWIRQPPGKGLEWIGYIHYSGSTNYNPSLKSRVTISRDTSKNQFSLKLSSVTAADTAVYYCARNYGSIYVNYFDYWGQGTLVTVSS VL: EIVLTQSPATLSLSPGERATLSCSASSSVSYMYWYQQKPGQAPRPLIYRTSNLASGIPARFSGSGSGTDFTLTISSLEPEDFAVYYCQQYHSYPTFGGGTKVEIK | 1.29 nM
SA302a HC-T30M (antibody, V domains shown) VH: QVQLQESGPGLVKPSQTLSLTCTVSGYSIMSDYNAHWIRQPPGKGLEWIGYIHYSGSTNYNPSLKSRVTISRDTSKNQFSLKLSSVTAADTAVYYCARNYGSIYVNYFDYWGQGTLVTVSS VL: EIVLTQSPATLSLSPGERATLSCSASSSVSYMYWYQQKPGQAPRPLIYRTSNLASGIPARFSGSGSGTDFTLTISSLEPEDFAVYYCQQYHSYPTFGGGTKVEIK | 1.54 nM
SA302a HC-T30Q (antibody, V domains shown) VH: QVQLQESGPGLVKPSQTLSLTCTVSGYSIQSDYNAHWIRQPPGKGLEWIGYIHYSGSTNYNPSLKSRVTISRDTSKNQFSLKLSSVTAADTAVYYCARNYGSIYVNYFDYWGQGTLVTVSS VL: EIVLTQSPATLSLSPGERATLSCSASSSVSYMYWYQQKPGQAPRPLIYRTSNLASGIPARFSGSGSGTDFTLTISSLEPEDFAVYYCQQYHSYPTFGGGTKVEIK | 1.28 nM
SA302a HC-T30S (antibody, V domains shown) VH: QVQLQESGPGLVKPSQTLSLTCTVSGYSISSDYNAHWIRQPPGKGLEWIGYIHYSGSTNYNPSLKSRVTISRDTSKNQFSLKLSSVTAADTAVYYCARNYGSIYVNYFDYWGQGTLVTVSS VL: EIVLTQSPATLSLSPGERATLSCSASSSVSYMYWYQQKPGQAPRPLIYRTSNLASGIPARFSGSGSGTDFTLTISSLEPEDFAVYYCQQYHSYPTFGGGTKVEIK | 0.66 nM
SA302a HC-T30L (antibody, V domains shown) VH: QVQLQESGPGLVKPSQTLSLTCTVSGYSILSDYNAHWIRQPPGKGLEWIGYIHYSGSTNYNPSLKSRVTISRDTSKNQFSLKLSSVTAADTAVYYCARNYGSIYVNYFDYWGQGTLVTVSS VL: EIVLTQSPATLSLSPGERATLSCSASSSVSYMYWYQQKPGQAPRPLIYRTSNLASGIPARFSGSGSGTDFTLTISSLEPEDFAVYYCQQYHSYPTFGGGTKVEIK | 1.22 nM
SA302a HC-T30Y (antibody, V domains shown) VH: QVQLQESGPGLVKPSQTLSLTCTVSGYSIYSDYNAHWIRQPPGKGLEWIGYIHYSGSTNYNPSLKSRVTISRDTSKNQFSLKLSSVTAADTAVYYCARNYGSIYVNYFDYWGQGTLVTVSS VL: EIVLTQSPATLSLSPGERATLSCSASSSVSYMYWYQQKPGQAPRPLIYRTSNLASGIPARFSGSGSGTDFTLTISSLEPEDFAVYYCQQYHSYPTFGGGTKVEIK | 1.15 nM
SA302a HC-S31V (antibody, V domains shown) VH: QVQLQESGPGLVKPSQTLSLTCTVSGYSITVDYNAHWIRQPPGKGLEWIGYIHYSGSTNYNPSLKSRVTISRDTSKNQFSLKLSSVTAADTAVYYCARNYGSIYVNYFDYWGQGTLVTVSS VL: EIVLTQSPATLSLSPGERATLSCSASSSVSYMYWYQQKPGQAPRPLIYRTSNLASGIPARFSGSGSGTDFTLTISSLEPEDFAVYYCQQYHSYPTFGGGTKVEIK | 1.09 nM
SA302a HC-T30A (antibody, V domains shown) VH: QVQLQESGPGLVKPSQTLSLTCTVSGYSIASDYNAHWIRQPPGKGLEWIGYIHYSGSTNYNPSLKSRVTISRDTSKNQFSLKLSSVTAADTAVYYCARNYGSIYVNYFDYWGQGTLVTVSS VL: EIVLTQSPATLSLSPGERATLSCSASSSVSYMYWYQQKPGQAPRPLIYRTSNLASGIPARFSGSGSGTDFTLTISSLEPEDFAVYYCQQYHSYPTFGGGTKVEIK | 1.32 nM
SA302a HC-T30V (antibody, V domains shown) VH: QVQLQESGPGLVKPSQTLSLTCTVSGYSIVSDYNAHWIRQPPGKGLEWIGYIHYSGSTNYNPSLKSRVTISRDTSKNQFSLKLSSVTAADTAVYYCARNYGSIYVNYFDYWGQGTLVTVSS VL: EIVLTQSPATLSLSPGERATLSCSASSSVSYMYWYQQKPGQAPRPLIYRTSNLASGIPARFSGSGSGTDFTLTISSLEPEDFAVYYCQQYHSYPTFGGGTKVEIK | 1.08 nM
SA302a HC-T30N (antibody, V domains shown) VH: QVQLQESGPGLVKPSQTLSLTCTVSGYSINSDYNAHWIRQPPGKGLEWIGYIHYSGSTNYNPSLKSRVTISRDTSKNQFSLKLSSVTAADTAVYYCARNYGSIYVNYFDYWGQGTLVTVSS VL: EIVLTQSPATLSLSPGERATLSCSASSSVSYMYWYQQKPGQAPRPLIYRTSNLASGIPARFSGSGSGTDFTLTISSLEPEDFAVYYCQQYHSYPTFGGGTKVEIK | 1.5 nM
SA302a HC-T30G (antibody, V domains shown) VH: QVQLQESGPGLVKPSQTLSLTCTVSGYSIGSDYNAHWIRQPPGKGLEWIGYIHYSGSTNYNPSLKSRVTISRDTSKNQFSLKLSSVTAADTAVYYCARNYGSIYVNYFDYWGQGTLVTVSS VL: EIVLTQSPATLSLSPGERATLSCSASSSVSYMYWYQQKPGQAPRPLIYRTSNLASGIPARFSGSGSGTDFTLTISSLEPEDFAVYYCQQYHSYPTFGGGTKVEIK | 1.38 nM
SA302a HC-T30I (antibody, V domains shown) VH: QVQLQESGPGLVKPSQTLSLTCTVSGYSIISDYNAHWIRQPPGKGLEWIGYIHYSGSTNYNPSLKSRVTISRDTSKNQFSLKLSSVTAADTAVYYCARNYGSIYVNYFDYWGQGTLVTVSS VL: EIVLTQSPATLSLSPGERATLSCSASSSVSYMYWYQQKPGQAPRPLIYRTSNLASGIPARFSGSGSGTDFTLTISSLEPEDFAVYYCQQYHSYPTFGGGTKVEIK | 1.79 nM
SA302a HC-H35M (antibody, V domains shown, IgG1 kappa) VH: QVQLQESGPGLVKPSQTLSLTCTVSGYSITSDYNAMWIRQPPGKGLEWIGYIHYSGSTNYNPSLKSRVTISRDTSKNQFSLKLSSVTAADTAVYYCARNYGSIYVNYFDYWGQGTLVTVSS VL: EIVLTQSPATLSLSPGERATLSCSASSSVSYMYWYQQKPGQAPRPLIYRTSNLASGIPARFSGSGSGTDFTLTISSLEPEDFAVYYCQQYHSYPTFGGGTKVEIK | 2.18 nM
SA302a HC-H35T (antibody, V domains shown, IgG1 kappa) VH: QVQLQESGPGLVKPSQTLSLTCTVSGYSITSDYNATWIRQPPGKGLEWIGYIHYSGSTNYNPSLKSRVTISRDTSKNQFSLKLSSVTAADTAVYYCARNYGSIYVNYFDYWGQGTLVTVSS VL: EIVLTQSPATLSLSPGERATLSCSASSSVSYMYWYQQKPGQAPRPLIYRTSNLASGIPARFSGSGSGTDFTLTISSLEPEDFAVYYCQQYHSYPTFGGGTKVEIK | 2.23 nM
SA302a HC-H35K (antibody, V domains shown, IgG1 kappa) VH: QVQLQESGPGLVKPSQTLSLTCTVSGYSITSDYNAKWIRQPPGKGLEWIGYIHYSGSTNYNPSLKSRVTISRDTSKNQFSLKLSSVTAADTAVYYCARNYGSIYVNYFDYWGQGTLVTVSS VL: EIVLTQSPATLSLSPGERATLSCSASSSVSYMYWYQQKPGQAPRPLIYRTSNLASGIPARFSGSGSGTDFTLTISSLEPEDFAVYYCQQYHSYPTFGGGTKVEIK | 0.44 nM
SA302a HC-H35P (antibody, V domains shown, IgG1 kappa) VH: QVQLQESGPGLVKPSQTLSLTCTVSGYSITSDYNAPWIRQPPGKGLEWIGYIHYSGSTNYNPSLKSRVTISRDTSKNQFSLKLSSVTAADTAVYYCARNYGSIYVNYFDYWGQGTLVTVSS VL: EIVLTQSPATLSLSPGERATLSCSASSSVSYMYWYQQKPGQAPRPLIYRTSNLASGIPARFSGSGSGTDFTLTISSLEPEDFAVYYCQQYHSYPTFGGGTKVEIK | 0.88 nM
SA302a HC-H35E (antibody, V domains shown, IgG1 kappa) VH: QVQLQESGPGLVKPSQTLSLTCTVSGYSITSDYNAEWIRQPPGKGLEWIGYIHYSGSTNYNPSLKSRVTISRDTSKNQFSLKLSSVTAADTAVYYCARNYGSIYVNYFDYWGQGTLVTVSS VL: EIVLTQSPATLSLSPGERATLSCSASSSVSYMYWYQQKPGQAPRPLIYRTSNLASGIPARFSGSGSGTDFTLTISSLEPEDFAVYYCQQYHSYPTFGGGTKVEIK | 1.57 nM
SA302a HC-H35A (antibody, V domains shown, IgG1 kappa) VH: QVQLQESGPGLVKPSQTLSLTCTVSGYSITSDYNAAWIRQPPGKGLEWIGYIHYSGSTNYNPSLKSRVTISRDTSKNQFSLKLSSVTAADTAVYYCARNYGSIYVNYFDYWGQGTLVTVSS VL: EIVLTQSPATLSLSPGERATLSCSASSSVSYMYWYQQKPGQAPRPLIYRTSNLASGIPARFSGSGSGTDFTLTISSLEPEDFAVYYCQQYHSYPTFGGGTKVEIK | 6.41 nM
SA302a HC-D33Y (antibody, V domains shown, IgG1 kappa) VH: QVQLQESGPGLVKPSQTLSLTCTVSGYSITSYYNAHWIRQPPGKGLEWIGYIHYSGSTNYNPSLKSRVTISRDTSKNQFSLKLSSVTAADTAVYYCARNYGSIYVNYFDYWGQGTLVTVSS VL: EIVLTQSPATLSLSPGERATLSCSASSSVSYMYWYQQKPGQAPRPLIYRTSNLASGIPARFSGSGSGTDFTLTISSLEPEDFAVYYCQQYHSYPTFGGGTKVEIK | 3.79 nM
SA302a HC-H35V (antibody, V domains shown, IgG1 kappa) VH: QVQLQESGPGLVKPSQTLSLTCTVSGYSITSDYNAVWIRQPPGKGLEWIGYIHYSGSTNYNPSLKSRVTISRDTSKNQFSLKLSSVTAADTAVYYCARNYGSIYVNYFDYWGQGTLVTVSS VL: EIVLTQSPATLSLSPGERATLSCSASSSVSYMYWYQQKPGQAPRPLIYRTSNLASGIPARFSGSGSGTDFTLTISSLEPEDFAVYYCQQYHSYPTFGGGTKVEIK | 2.42 nM
